The assay concerns the target HIV-1 92BR-gp120 (HIV-1 (92BR)). In words: BLI. For orientation: In BLI a coated tip is dipped into the sample, and binding shifts an interference pattern.

Usually Kd stands for a measure of binding affinity in units of concentration. Low values mean a tighter complex, high ones a looser complex.

B1: gp120-Ab8 (antibody, V domains shown)
VH: EVQLVESGGGVVQPGRSLRLSCAASGFTFSFYGMHWVRQAPGKGLEWVAVISYDGRIKSYADSVKGRFTTSRDNSKNTLYLEMSSLRVEDTAVYYCAKSLVGATLLGPFGPWGQGSLVTVSS
VL: SYELTQPPSVSVAPGQTARITCGGDKIGGERVHWYQQKPGQAPVLVVYDDRDRPSGIPERFSGSNSGNTATLTISRVEAGDEADYYCQVRDSTSDHYVFGSGTKVTVL
B1 displayed a Kd of 89.3 nM.

(Values after PMC5551578.)
